Reference: US20090269346A1 (RAPTOR PHARMACEUTICAL, published 2009)
Like-named read-outs stand apart in the source and are kept apart here.

How the values were obtained:
Assay in all cases: solid-phase assay, coated CR protein, anti-RAP, OD450
LRP1 CR3-5 [1] = target: T1, LRP1 CR3-5 (human)
T1 construct: range 852-973; Amplified from human cDNA; also called L1 CR3-5
Method: (§1) Solid phase binding assays-Purified, refolded CR protein (1 μg) was bound to Nunc Maxisorp™ 96-well plates in TBS pH 8 supplemented with 5 mM CaCl₂ (TBSC) overnight at 4° C. Wells were washed with TBSC and then blocked with TBSC containing 2% bovine serum albumin (BSA). RAP ligands were then incubated with the immobilized receptor at a range of concentrations for 2 hours in the above blocking buffer supplemented with 0.05% Tween-20 at room temperature. Control wells contained no added ligand. As an additional control, to determine whether the absence of calcium affected binding, 10 mM EGTA was included in the incubation medium for some samples. Wells were washed with TBSTC and bound ligands detected with polyclonal anti-RAP (BP41/42, 1:1,000, BioMarin). Excess primary antibody was removed and wells washed before incubation with the secondary antibody, HRP-conjugated goat anti rabbit IgG (Bio-Rad). After washing, TMB substrate solutions (Bio-Rad) were added to detect HRP. Color development was stopped with 1N HCl. Absorption at 450 nm was measured with a microplate spectrophotometer (Molecular Devices). Data were plotted and Kd values derived by non-linear regression with the assumption of single-site binding (GraphPad Prism).
(§2) Additional assays were performed to assess the binding of wild-type RAP d3 (SEQ ID NO: 92) to each CR pair or set of overlapping pairs was then measured by solid-phase assay (FIG. 5B). Diluted samples were incubated with each test protein, immobilized in multiwell plates. Binding assays were performed as described in Methods. Two independent experiments were performed with triplicate wells for each sample. Means and standard deviations were calculated from the combined values from both experiments and plotted against ligand concentration. Curves were fitted using non-linear regression with a single-site binding model (GraphPad Prism). Kd values with standard deviations were derived from the fitted curves. In all cases, 10 mM EGTA removed >85% of the mean binding signal at the highest concentration of ligand tested.

LRP2 CR89 [2] = target: T2, LRP2 CR89 (human, UniProt P98164 1025-1102)
T2 construct: domain: CR8 and CR9; also called YVWR; L2 CR89; not shown: N-terminal hexahistidine and S-peptide from pET30(+)a
Method: as §1, §2

LRP1 CR3-5 [3] = target: T1, LRP1 CR3-5; remark: listed apart in the source
Method: (§3) Percent of maximum binding is the ratio of the OD at the highest concentration tested for each ligand and the highest OD measured for all such ligands at that concentration.
as §1
(§4) Next, binding of RAP d3 and RAPv2A d3 proteins to LRP1 CR3-5 and LRP2 CR89 was assessed. In order to understand the relative contributions of each RAPv2A d3 mutation to differences in affinity, we also prepared a number of RAPv2A d3 revertants and RAP d3 forward mutants, all comprising sequence variants intermediate between RAPv2A d3 and wild-type RAP d3 (FIGS. 7A and B, Table 1). Samples were tested in triplicate and experiments were repeated at least once. Values from different experiments were combined and a single mean and standard deviation obtained for each concentration of ligand tested.

LRP2 CR89 [4] = target: T2, LRP2 CR89; remark: listed apart in the source
Method: as §3, §1, §4

LRP2 CR89 [5] = target: T2, LRP2 CR89; remark: listed apart in the source
Method: as §1
(§5) One premise of this work was that amino acids at A, C, A′ and C′ within the calcium-binding loops of a CR pair were key determinants of binding affinity for RAP and would be similarly important for binding of RAP variants. To test this idea, we prepared mutants of LRP2 CR89 in which the native, non-canonical residues at these positions were sequentially substituted with the non-native, canonical residues. As defined above, the A, C, A′, C′ string for LRP2 CR89 is YVWR. Mutants included LRP2 CR89 Y1042W (WVWR), LRP2 CR89 V1047D (YDWR), LRP2 CR89 R1088D (YVWD), LRP2 CR89 V1047D R1088D (YDWD), LRP2 CR89 Y1042W V1047D R1088D (WDWD), LRP2 CR89 Y1042W V1047D (WDWR), LRP2 CR89 Y1042W R1088D (WVWD). Binding to both RAP d3 and RAPv2A d3 were measured for each LRP2 CR89 mutant by solid-phase assay. Samples were tested in triplicate. OD values from uncoated wells, receptor-coated wells incubated with buffer alone, and uncoated wells incubated with the highest ligand concentration all gave similar values for all conditions tested.

LRP2 CR89 R1088D = target: T3, LRP2 CR89 R1088D (human, UniProt P98164 1022-1105)
T3 construct: also called YVWD
Method: as §1, §5

LRP2 CR89 V1047D R1088D = target: T4, LRP2 CR89 V1047D R1088D (human, UniProt P98164 1022-1105)
T4 construct: also called YDWD
T4 chain: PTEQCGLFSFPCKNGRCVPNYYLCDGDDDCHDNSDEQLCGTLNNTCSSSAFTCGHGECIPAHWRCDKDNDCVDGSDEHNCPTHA
Method: as §1, §5

LRP2 CR89 V1047D = target: T5, LRP2 CR89 V1047D (human, UniProt P98164 1022-1105)
T5 construct: also called YDWR
T5 chain: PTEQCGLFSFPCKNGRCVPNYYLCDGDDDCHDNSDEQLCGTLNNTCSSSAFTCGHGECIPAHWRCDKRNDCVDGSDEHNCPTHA
Method: as §1, §5

LRP2 CR89 Y1042W = target: T6, LRP2 CR89 Y1042W (human, UniProt P98164 1022-1105)
T6 construct: also called WVWR
T6 chain: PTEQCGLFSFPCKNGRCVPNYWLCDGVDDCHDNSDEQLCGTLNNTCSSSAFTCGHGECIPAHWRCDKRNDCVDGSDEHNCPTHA
Method: as §1, §5

LRP2 CR89 Y1042W R1088D = target: T7, LRP2 CR89 Y1042W R1088D (human, UniProt P98164 1022-1105)
T7 construct: also called WVWD
T7 chain: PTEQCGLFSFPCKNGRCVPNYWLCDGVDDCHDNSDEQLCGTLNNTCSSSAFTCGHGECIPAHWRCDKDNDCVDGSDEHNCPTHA
Method: as §1, §5

[6] = target: T8, LRP2 CR89 Y1042W V1047D R1088D (human, UniProt P98164 1022-1105)
T8 construct: also called WDWD
T8 chain: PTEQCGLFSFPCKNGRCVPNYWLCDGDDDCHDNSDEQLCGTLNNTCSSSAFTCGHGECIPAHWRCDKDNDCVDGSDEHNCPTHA
Method: as §1, §5

T1 sequence (Q07954 852-973): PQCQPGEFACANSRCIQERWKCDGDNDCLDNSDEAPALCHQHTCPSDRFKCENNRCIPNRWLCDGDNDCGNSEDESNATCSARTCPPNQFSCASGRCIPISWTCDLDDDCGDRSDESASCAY
T2 sequence (P98164 1025-1102): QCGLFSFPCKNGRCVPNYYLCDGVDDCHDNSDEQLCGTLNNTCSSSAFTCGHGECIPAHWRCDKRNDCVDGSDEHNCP

Kd (LRP1 CR3-5 [1]): 11 nM | Kd (LRP2 CR89 [2]): > 300 nM | % max (percent of maximum binding) (LRP1 CR3-5 [3]): 76% | Kd (LRP1 CR3-5 [3]): 16 nM | % max (percent of maximum binding) (LRP2 CR89 [4]): 5% | % max bind (LRP2 CR89 [5]): 7% | % max bind (LRP2 CR89 R1088D): 7% | % max bind (LRP2 CR89 V1047D R1088D): 6% | % max bind (LRP2 CR89 V1047D): 6% | % max bind (LRP2 CR89 Y1042W): 9% | % max bind (LRP2 CR89 Y1042W R1088D): 16% | % max bind [6]: 15%
B1: wild-type RAP d3 (ligand)
chain: LDRLRRVSHQGYSTEAEFEEPRVIDLWDLEQSANLTDKELEAFREELKHFEAKIEKHNHYQKQLEIAHEKLRHAESVGDGERVSRSREKHALLEGRTKELGYTVKKHLQDLSGRISRAR
notes: expressed in E. coli from pET30(+)a; not shown: vector-encoded N-terminal tags of pET30(+)a (hexahistidine and S-peptide, as stated for the CR constructs)
